This passage reports activity results from patent US20260275312, “CRISPR NUCLEASE POLYPEPTIDES AND GENE EDITING SYSTEMS COMPRISING SUCH” (ARBOR BIOTECHNOLOGIES, INC., published 2026).

The target in series [1] is T1, Nuclease S W509R/T72R/I845R (synthetic construct, W509R,T72R,I845R).
T1 chain: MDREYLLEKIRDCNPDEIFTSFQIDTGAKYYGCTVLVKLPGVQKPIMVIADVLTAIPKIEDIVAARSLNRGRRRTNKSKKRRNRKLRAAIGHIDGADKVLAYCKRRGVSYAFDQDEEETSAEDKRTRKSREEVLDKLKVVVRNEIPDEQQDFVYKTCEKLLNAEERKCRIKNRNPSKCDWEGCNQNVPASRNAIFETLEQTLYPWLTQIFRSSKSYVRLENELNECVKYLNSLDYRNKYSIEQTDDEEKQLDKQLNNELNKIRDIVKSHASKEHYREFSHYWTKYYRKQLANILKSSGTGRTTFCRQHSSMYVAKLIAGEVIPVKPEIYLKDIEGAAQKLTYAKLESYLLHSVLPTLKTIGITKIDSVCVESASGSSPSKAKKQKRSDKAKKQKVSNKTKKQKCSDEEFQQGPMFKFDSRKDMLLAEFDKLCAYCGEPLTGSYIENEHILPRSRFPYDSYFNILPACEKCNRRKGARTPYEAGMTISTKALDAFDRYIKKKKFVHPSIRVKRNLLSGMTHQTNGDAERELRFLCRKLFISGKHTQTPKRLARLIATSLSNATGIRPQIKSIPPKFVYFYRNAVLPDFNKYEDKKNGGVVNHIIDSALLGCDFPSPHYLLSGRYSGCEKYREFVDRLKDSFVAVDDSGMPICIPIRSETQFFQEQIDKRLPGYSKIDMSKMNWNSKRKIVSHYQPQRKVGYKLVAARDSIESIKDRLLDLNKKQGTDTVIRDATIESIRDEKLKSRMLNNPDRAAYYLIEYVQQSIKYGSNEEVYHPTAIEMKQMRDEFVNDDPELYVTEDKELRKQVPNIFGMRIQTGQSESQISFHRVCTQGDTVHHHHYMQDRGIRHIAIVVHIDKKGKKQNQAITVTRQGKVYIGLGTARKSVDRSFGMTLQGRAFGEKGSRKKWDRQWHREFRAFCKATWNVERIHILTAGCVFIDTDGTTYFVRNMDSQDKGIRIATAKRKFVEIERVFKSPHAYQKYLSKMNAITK
Description: cell_activity; HEK293T; PAM AACC. The note with it: tags: N-term SV40 NLS, XTEN linker + C-term nucleoplasmin NLS. On the procedure:
(§1) HEK293T cells were transfected with plasmids expressing the Nuclease S polypeptides and the gRNAs provided herein following the methods provided in Example 1 above. Gene editing efficiencies were determined by NGS following the methods also provided in Example 1. The NGS results were analyzed also following the methods provided in Example 1 above.
(§2) Each Nuclease S variant was cloned as described in Example 6. HEK293T cells were further transfected with a plasmid encoding a Nuclease S variant and a plasmid encoding an RNA guide of Table 11, followed by NGS analysis, as described in Example 5. For each target, indel ratios, referring to the percentage of NGS reads comprising indels, were calculated for the reference Nuclease S (SEQ ID NO: 49) and for each Nuclease S variant. The indel ratios shown in Table 13 were calculated as the average of two bioreplicates, each of which contained two technical replicates.

Series [2] concerns the target T2, Nuclease S H280R/T72R/I845R (synthetic construct, H280R,T72R,I845R).
T2 chain: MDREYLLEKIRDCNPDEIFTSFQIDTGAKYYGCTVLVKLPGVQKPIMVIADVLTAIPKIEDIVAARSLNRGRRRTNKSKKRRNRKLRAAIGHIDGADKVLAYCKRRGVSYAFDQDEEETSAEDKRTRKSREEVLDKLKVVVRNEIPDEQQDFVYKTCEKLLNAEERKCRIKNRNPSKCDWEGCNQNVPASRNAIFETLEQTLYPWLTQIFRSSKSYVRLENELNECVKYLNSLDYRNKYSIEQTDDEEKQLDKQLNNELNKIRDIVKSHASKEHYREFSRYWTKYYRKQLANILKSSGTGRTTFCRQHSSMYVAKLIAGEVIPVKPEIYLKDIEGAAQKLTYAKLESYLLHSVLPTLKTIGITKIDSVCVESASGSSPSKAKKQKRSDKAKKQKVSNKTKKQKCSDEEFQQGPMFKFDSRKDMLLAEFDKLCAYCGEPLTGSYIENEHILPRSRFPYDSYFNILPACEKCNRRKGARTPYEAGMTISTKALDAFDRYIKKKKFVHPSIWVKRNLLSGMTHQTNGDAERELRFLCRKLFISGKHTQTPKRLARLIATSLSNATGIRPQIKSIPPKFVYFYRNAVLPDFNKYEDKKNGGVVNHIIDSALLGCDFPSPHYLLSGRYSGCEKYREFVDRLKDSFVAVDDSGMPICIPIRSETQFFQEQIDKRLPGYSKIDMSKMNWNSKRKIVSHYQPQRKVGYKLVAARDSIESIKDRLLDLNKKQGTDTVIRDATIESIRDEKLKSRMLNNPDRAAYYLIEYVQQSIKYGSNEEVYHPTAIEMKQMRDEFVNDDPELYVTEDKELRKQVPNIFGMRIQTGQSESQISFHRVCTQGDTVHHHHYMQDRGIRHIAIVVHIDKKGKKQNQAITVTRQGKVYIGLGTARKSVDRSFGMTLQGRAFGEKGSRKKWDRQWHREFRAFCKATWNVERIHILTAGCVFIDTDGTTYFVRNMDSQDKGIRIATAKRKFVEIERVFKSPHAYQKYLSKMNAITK
As to the kind of experiment: cell_activity; HEK293T; PAM AACC. The note with it: tags: N-term SV40 NLS, XTEN linker + C-term nucleoplasmin NLS. The procedure:
as §1, §2

B1: S AAVS1-T7 RNA guide ; AAVS1-T7 target (S) (ssRNA ; dsDNA)
RNA: GGCUAUAAUCCAUGCUGACCGUUGUAUUCGGAUGGGAGUAAAAGGUUGAGUACACCUGGAAACAAAACGACAUAAAGGUGUUCUCCCAUCUGUGUACAAAGAGCAGAUAUAUGAGUUGAUAAGUAAUAUGUUGCACGUAUGGACUUUGACAGUCUGUACCUCUGCGUGAAAGACAUAUUGCGUUAUUCAUAUAUCUGUGAGUCUGUUCUAAAUUUAAAGGUUUAGGGAA
DNA 1: GGCTATAATCCATGCTGACC
DNA 2: GGTCAGCATGGATTATAGCC
With B1, the figures for the activity in series [1] and in series [2] were 0.305 indel ratio and 0.333 indel ratio, respectively.
